Experimental data taken from PMC5125647, “Multivalent Interactions of Human Primary Amine Oxidase with the V and C2_(2) Domains of Sialic Acid-Binding Immunoglobulin-Like Lectin-9 Regulate Its Binding and Amine Oxidase Activity” (PLoS ONE, 2016).
Substitutions are numbered along the chain they refer to. Names and notes keep the numbering of the source.

T1: human primary amine oxidase (hAOC3) (human, UniProt Q16853 1-763, topaquinone (TPQ) cofactor, modified from Tyr471; N-glycans attached to N137, N232, N294, N592, N618 and N666, with sialic acids)
T1 construct: human primary amine oxidase (AOC3, VAP-1); In the functional assays hAOC3 stood on live CHO-hAOC3 cells or in CHO-hAOC3 lysate; also called vascular adhesion protein-1; VAP-1
T1 sequence: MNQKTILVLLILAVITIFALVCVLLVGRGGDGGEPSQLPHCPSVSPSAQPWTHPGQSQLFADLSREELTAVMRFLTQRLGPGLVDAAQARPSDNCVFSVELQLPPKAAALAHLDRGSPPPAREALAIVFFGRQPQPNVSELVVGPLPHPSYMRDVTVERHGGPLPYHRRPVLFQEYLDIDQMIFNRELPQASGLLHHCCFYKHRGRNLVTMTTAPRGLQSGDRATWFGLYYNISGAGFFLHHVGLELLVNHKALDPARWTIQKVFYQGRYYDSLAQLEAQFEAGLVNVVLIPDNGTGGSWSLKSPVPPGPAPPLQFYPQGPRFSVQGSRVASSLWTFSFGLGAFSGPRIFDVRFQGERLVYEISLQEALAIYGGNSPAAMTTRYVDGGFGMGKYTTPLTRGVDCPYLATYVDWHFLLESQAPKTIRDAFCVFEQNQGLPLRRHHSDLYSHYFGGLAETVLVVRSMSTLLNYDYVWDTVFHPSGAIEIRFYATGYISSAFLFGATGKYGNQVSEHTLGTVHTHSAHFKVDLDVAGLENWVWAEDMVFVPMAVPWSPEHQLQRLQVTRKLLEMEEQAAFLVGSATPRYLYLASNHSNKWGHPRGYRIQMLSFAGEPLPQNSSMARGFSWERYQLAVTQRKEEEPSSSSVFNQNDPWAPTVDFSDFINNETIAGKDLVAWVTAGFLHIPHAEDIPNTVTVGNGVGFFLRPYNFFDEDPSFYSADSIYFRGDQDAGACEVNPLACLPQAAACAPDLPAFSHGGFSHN

B1: Siglec-9-EC (extracellular region of sialic acid-binding immunoglobulin-like lectin-9, V-C2_(12); residues 26-348) (domain or fragment, UniProt Q9Y336 26-348, looked up)
chain: QSSVTVQEGLCVHVPCSFSYPSHGWIYPGPVVHGYWFREGANTDQDAPVATNNPARAVWEETRDRFHLLGDPHTKNCTLSIRDARRSDAGRYFFRMEKGSIKWNYKHHRLSVNVTALTHRPNILIPGTLESGCPQNLTCSVPWACEQGTPPMISWIGTSVSPLDPSTTRSSVLTLIPQPQDHGTSLTCQVTFPGASVTTNKTVHLNVSYPPQNLTMTVFQGDGTVSTVLGNGSSLSLPEGQSLRLVCAVDAVDSNPPARLSLSWRGLTLCPSQPSNPGVLELPWVHLRDAAEFTCRAQNPLGSQQVYLNVSLQSKATSGVTQG
notes: Siglec-9, UniProtKB Q9Y336, extracellular region with the V, C2_(1) and C2_(2) domains, residues 26-348; The construct has a secretion signal for insect cell production before the tags; The His tag is called cleavable, but no cleavage is described; Dimer by SEC retention (85 kDa); Insect-cell glycosylation; eight putative N-glycosylation sites; Cloning details are in S1 Text; also called WT; …
B2: Siglec-9-EC/R284S (domain or fragment, UniProt Q9Y336 26-348, looked up)
chain: B1 chain with R259S
notes: Siglec-9, UniProtKB Q9Y336, extracellular region, residues 26-348, with R284S in the C2_(2) domain; Made from the Siglec-9-EC production vector by site-directed mutagenesis; also called R284S mutant; source: baculovirus, Tn5 (High Five) insect cells, secreted into the medium, purified (Ni2+ resin, Superdex 200 gel filtration)
B3: Siglec-9-EC/R290S (domain or fragment, UniProt Q9Y336 26-348, looked up)
chain: B1 chain with R265S
notes: Siglec-9, UniProtKB Q9Y336, extracellular region, residues 26-348, with R290S in the C2_(2) domain; Made from the Siglec-9-EC production vector by site-directed mutagenesis; also called R290S mutant; source: baculovirus, Tn5 (High Five) insect cells, secreted into the medium, purified (Ni2+ resin, Superdex 200 gel filtration)
B4: Siglec-9-ΔV (C2_(12); residues 145-348) (domain or fragment, UniProt Q9Y336 145-348, looked up)
chain: RPNILIPGTLESGCPQNLTCSVPWACEQGTPPMISWIGTSVSPLDPSTTRSSVLTLIPQPQDHGTSLTCQVTFPGASVTTNKTVHLNVSYPPQNLTMTVFQGDGTVSTVLGNGSSLSLPEGQSLRLVCAVDAVDSNPPARLSLSWRGLTLCPSQPSNPGVLELPWVHLRDAAEFTCRAQNPLGSQQVYLNVSLQSKATSGVTQG
notes: Siglec-9, UniProtKB Q9Y336, C2_(1) and C2_(2) domains without the V domain, residues 145-348; The construct has a secretion signal for insect cell production before the tags; also called Siglec-9-EC-ΔV; source: baculovirus, Tn5 (High Five) insect cells, secreted into the medium, purified (Ni2+ resin, Superdex 200 gel filtration)

Key:
[1] = target: T1, human primary amine oxidase (hAOC3); assay: SPR; BiacoreX; hAOC3 amine-coupled to a CM5 chip (10 000 RU); 20 ul of 0.3-31 uM Siglec-9-EC injected at 25 C; running buffer HBS (10 mM HEPES, 150 mM NaCl, pH 7.4) with 0.005% Surfactant-P20; apparent Kd from responses at the end of injection against concentration, steady state and one-to-one model assumed, non-linear regression (GraphPad); two protein preparations; conditions: both partners purified
[2] = target: T1, human primary amine oxidase (hAOC3); assay: cell-based or functional assay
[3] = target: T1, human primary amine oxidase (hAOC3); assay: SPR; hAOC3 immobilised; five to seven concentrations of Siglec-9-EC, R284S or R290S; kon and koff determined separately for every curve with Biaeval, Kd as their ratio; average without the highest and lowest value; conditions: both partners purified
[4] = target: T1, human primary amine oxidase (hAOC3); assay: as above; conditions: both partners purified; remark: listed apart in the source
[5] = target: the molecule itself; assay: SEC; Superdex 200 10/300 GL, 20 mM HEPES pH 7.4, 150 mM NaCl; size from the retention time against standard proteins
[6] = target: T1, human primary amine oxidase (hAOC3); assay: SPR; hAOC3 immobilised; one concentration (0.5 uM) of each Siglec-9 protein; relative binding normalised to the first control condition; conditions: both partners purified

| Binder | Kd [1] [µM] | amine oxidase activity of intact CHO-hAOC3 cells on [7-14C]benzylamine with 5 uM Siglec-9-EC added before the substrate (a similar increase with 1 uM in Fig 7C) [2] [fold] | Kd [3] [nM] | koff [3] [s⁻¹] | kon [3] [M⁻¹ s⁻¹] | maximal binding at the highest concentration [4] [RU] | stoichiometry N [5] | binding relative to WT [6] [%] |
| --- | --- | --- | --- | --- | --- | --- | --- | --- |
| B1 | 4.6 ± 0.93 | 2 | 1040 ± 870 | 0.00691 | 11200 | 3120 | 2 | – |
| B2 | – | – | 140 | 0.00373 | 32100 | 1130 | – | – |
| B3 | – | – | 530 ± 500 | 0.0031 | 11000 | 1760 | – | – |
| B4 | – | – | – | – | – | – | – | < 10 |
